# B1: FLAG-Pex14p(156–376)SD (domain or fragment, rat, UniProt Q642G4 156-376, looked up)
# chain: SGSVAQTVTQVQTTLASVQELLRQQQQKVQELAHELAAAKATTSTNWILESQNINELKSEINSLKGLLLNRRQFPPDPSAPKIPSWQIPVKSPSPSSPAAVNHHSSSDISPVSNESPSSSPGKDGHSPEGSTATYRLLGPQEEGEGVVDVKGQVRMEVQGEEEKREDEEGEEDEDDDVSHVDEEDVLGVQREDRRGGDGQINEQVEKLRRPEGASNESERD
# Biological target: the molecule itself
# Test: native gel or EMSA
protein,measurement,value
B1,fold formation of homo-oligomer against WT or SA mutant,~1.5 fold

# — publication PMC7659713 (The Journal of Cell Biology, 2020)
